Experimental data taken from patent US6696546.

Columns and labels:
[1] = test system: 8-mer PAP CRM-derived peptide (SKIRILVG)
[2] = test system: 8-mer peptide of scrambled sequence (LRSGIKVI)
[3] = target: bacterial produced, purified his-PAP I (UniProt P25500)
Sequence of bacterial produced, purified his-PAP I (P25500 other isoform, or with tags, fused parts or gaps): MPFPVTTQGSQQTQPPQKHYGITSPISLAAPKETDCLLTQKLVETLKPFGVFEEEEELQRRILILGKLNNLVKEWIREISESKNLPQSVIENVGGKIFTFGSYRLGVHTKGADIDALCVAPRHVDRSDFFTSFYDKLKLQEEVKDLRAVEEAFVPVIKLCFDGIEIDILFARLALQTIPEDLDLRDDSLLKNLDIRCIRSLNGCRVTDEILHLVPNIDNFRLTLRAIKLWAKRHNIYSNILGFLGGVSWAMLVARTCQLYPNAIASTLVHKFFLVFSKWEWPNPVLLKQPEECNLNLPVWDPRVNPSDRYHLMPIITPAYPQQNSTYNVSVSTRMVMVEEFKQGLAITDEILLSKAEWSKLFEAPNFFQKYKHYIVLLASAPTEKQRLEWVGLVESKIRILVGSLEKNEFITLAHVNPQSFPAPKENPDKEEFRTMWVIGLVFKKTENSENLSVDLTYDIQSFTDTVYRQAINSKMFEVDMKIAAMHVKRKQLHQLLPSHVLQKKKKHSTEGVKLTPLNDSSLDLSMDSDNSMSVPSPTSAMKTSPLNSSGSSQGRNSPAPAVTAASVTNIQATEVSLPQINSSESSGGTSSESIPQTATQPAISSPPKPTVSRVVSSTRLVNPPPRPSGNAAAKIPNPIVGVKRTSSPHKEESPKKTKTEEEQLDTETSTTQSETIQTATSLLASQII

Substance	pRB phosphorylation by cyclin A/cdk2 (in vitro kinase assay, 32P, autoradiography; peptide at 9 µM and 18 µM) [1]	pRB phosphorylation by cyclin A/cdk2 (in vitro kinase assay, 32P; peptide at 9 µM and 18 µM) [2]	32P incorporation into PAP (in vitro kinase assay, autoradiography) [3]	pRB phosphorylation by cyclin B1/cdc2 (in vitro kinase assay, 32P; peptide at 18 µM) [1]
human cyclin A/flu-tagged cdk2	PAP's CRM effectively inhibited pRB phosphorylation by cyclin A/cdk2 (lanes 2 and 3)	a peptide with PAP's CRM scrambled was also tested, and it showed no effect on pRB phosphorylation (lanes 4 and 5)	32P was efficiently incorporated into PAP	
human cyclin B1/flu epitope-tagged p34cdc2				PAP's CRM also strongly and specifically inhibited phosphorylation of pRB by cyclin B1/cdc2
